Laboratory results published in the DeepSol protein solubility set.

Assay: soluble on expression in E. coli; label from the status in PepcDB or PDB records

Row | Sequence | soluble on expression in E. coli
1 | MSAMENESNKDTNTETKSVPEEMEASKYVGQGFQPPAEKDAIEFAKKHRKEFEKVGEQFFKDNFGLKVKATNVVGKDDGVEVYVHCEDHGIVFNASLPLYKDAIHQKGSMRSNDNGDDMSMMVGTVLSGFEYRAQKEKYDNLYKFFKENEKKYQYTGFTKEAINKTQNVGYQNEYFYITYLSRNLKEYRKYYEPLIHKNDKEFKEGMQQARKELDYTANTDAVSTLFSTKKNFTKDNTVDDVIELSNKLKEKPNMPQKSQVTIQLGKSSINTKKPFYDDINPIEGLEHHHHHH | soluble
2 | MGSDKIHHHHHHMHGREAEDGVRSNPTGRQLRFGAELRKLREQAGLSATDAGQLLGIKQTQVSNMEAGRVGVSADRVRTLACHYECSDKALVEAIAAMTGDRTRGWWEEYREILPVGLLDLAELEHHATRLRTAVTVHIPGLFQTTEYAREIFRQAVPELPQPDVEHRVSFRIKRQAILFRDPPTPHQIIVHEAALRMRFGGSDVTRDQLKYLTAMNEREHISVQVIPFDTGVLPGSGQSIYYAEGPVPQLDTVNLDQSHGPVFLDAGAQLRKYRGLLDRMESAALSPEDSQKFIHTILKAL | not soluble
3 | MTELERHLLNALEQLQQDYMQRLNEWESAFVELQKMFSLTQRDNAMLNEQVMQLSQQVQHLSERTERLSQLYSENRRLEHHHHHH | not soluble
4 | MNISVFDLFSIGIGPSSSHTVGPMLAANAFLQLLEQKNLFDKTQRVKVELYGSLALTGKGHGTDKAILNGLENKAPETVDPASMIPRMHEILDSNLLNLAGKKEIPFHEATDFLFLQKELLPKHSNGMRFSAFDGNANLLIEQVYYSIGGGFITTEEDFDK | not soluble
5 | MSLALPDFEFSFATRDEFDRKPVAKKLINILNSNIDISPMVIDGSWGTGKTEFCRKTIKLINDEFNETLICAYIDAFEADHTNDPLIPIVAAISELIEDSSKKIAFLNKAKAIFRYGLKASARASVAWLLRSNTETLDQEFQKELEKAVDEGSQNLVDGVITDYQEAKKDINSLKLILQDLTVEKKLVIFIDELDRCKPDFAIAIIEKIKHVFDVANVKFILVTNYTQMKASVNHCYGLALDAHRYLDKFIKFKFYLPTDKYSNKRKQHVSYHYADQLIRNSDILKAHSRYYLDSRFDLLNNLIIINELSLREISNFILYLELFHTLKSDQFAPDKWYHLSIFIIFILYFKPELREKIRKKDILASELCKFLGINSHIKAKELTHDKDGVSRDIATLIMIFLNDNSIPGYQSDDEEDFKGWLSKLALSTNVGYLELITYIEQFINDIFNEFQFVTKAAALEHHHHHH | soluble
6 | MGSDKIHHHHHHMVCNLAIDAYYGCMADFSHILMTRPDFGDDDREWLHQLVADWQVIADLSFADLLLILQNGEGKYIIAEQCRPSTVMSLRAEDVVGNVVPESLCAELDAAMDSESVFRSSKLRTVGKAKVCNVYAPVRHNGKTLGLVVRETNMATRESNGRYESESISAGKQLYEMIPRGQFPYRNPVMNQRHNARVADGFIVLTVDGIVRYASPNAISCFRRLGSVSTMQGEYLSEIGTKLLHENDPVLETLPLVLSGKAAVDSELDANKAAVSMRSLPLMDANGRVGGIVLCRDVSELRRREKELQTKDATISEIHHRVKNNLQAVSALLRLQARKTKSEEVKKELKEAQRRVQTIAMVHEGLSQTADEIVDYDKVISNLLKMAVDLATMRDQHIDVDFVGKFGMMPAQDATPLSLVLTELITNSVEHGFEGRKEGHITISVGRGGNNLNVVVEDDGTGLADEEHDGMARSSGSGLGTQIINTFVTNDFGGTVHWEPRRGGGTRVVLDMKLCAAQDN | not soluble
7 | MLGNIAEISNPNERRQAVKALVSAVKSDEDDSVRAAATDALYQRGEDAFDYLVAELAEMGGSEATERTATTLLTEWLSADHLEFRMVAATALGERGATAAVPDLVRALTDPAPRVRTRAAQACGRLSDPRVVPPLSERLSDGRQQVREAAANALGAIGTDRALAELVPVTQADEEGLRLIAVDELGQFGSVKPVVVLVDALDDDSTTVQRAAMLSLLELLTTASTEELELIRGTVVDELARADVQATVPALLDIAADGTRRRYRQTAIWLLSRITGDRYRSEVIDCLLSTLDKPDEETAQLAEAVLPELRSPELEKRLRVYLSRERGSEEARSRAQAVLDEICDGSSGELVTTGVDYTYVDSPADYTNQHSSRD | not soluble
8 | MGHHHHHHHHHHSSGHIDDDDKHMLEDPMATGDERFYAEHLMPTLQGLLDPESAHRLAVRFTSLGLLPRARFQDSDMLEVRVLGHKFRNPVGIAAGFDKHGEAVDGLYKMGFGFVEIGSVTPKPQEGNPRPRVFRLPEDQAVINRYGFNSHGLSVVEHRLRARQQKQAKLTEDGLPLGVNLGKNKTSVDAAEDYAEGVRVLGPLADYLVVNVSSPNTAGLRSLQGKAELRRLLTKVLQERDGLRRVHRPAVLVKIAPDLTSQDKEDIASVVKELGIDGLIVTNTTVSRPAGLQGALRSETGGLSGKPLRDLSTQTIREMYALTQGRVPIIGVGGVSSGQDALEKIRAGASLVQLYTALTFWGPPVVGKVKRELEALLKEQGFGGVTDAIGADHRR | soluble
9 | MTAGEVLSQSEIDALLAALSAGEMSAEELKKEEEGRRVKTYDFRRALRFSKDQIRSLTRIHENFARLLTTFFSAQLRTYVQISVASADQIPYEEFVRSIPKMTIINVFEVPPLGGHVLLEVNPNIAYAMLDRVMGGRGVGMDKVEHLTEIETRIMSNLFDKAFVHWRDAWESVAEVDPLFVDFEVNPQFLRMIAPNDTVVVISLNTQIGEARGMMNVCIPHVVLEPIMPRLSVHYWMQAQKKERSPEEAKRIEQRIRAAKLPIIAELGTAVITVNEFLQLEAGDVIQLEQSIHEPLVVKIGHIPKFIGQPGKRNKKLAVQILAMIEGDEDDHDE | not soluble
10 | MRIGIISVGPGNIMNLYRGVKRASENFEDVSIELVESPRNDLYDLLFIPGVGHFGEGMRRLRENDLIDFVRKHVEDERYVVGVCLGMQLLFEESEEAPGVKGLSLIEGNVVKLRSRRLPHMGWNEVIFKDTFPNGYYYFVHTYRAVCEEEHVLGTTEYDGEIFPSAVRKGRILGFQFHPEKSSKIGRKLLEKVIECSLSRR | soluble
11 | MDRTIYDNYVKILRKELVPALGCTEPIALAYASAKAREVLGEFPEHMTVWCSGNIIKNVKGVKVPNSGGMKGVEAAAVLGLAGGDPSQALEVLEAVTQTDIKRTKELLRESFCDCCLKEGVANLYIEVQVVNGENEATVIIEQEHTNITRIEKNGKIVYAHKKEVSGEEIEVDKSLLNLADILVFAQEVDLNEVRDVLARQIRYNSRIAKEGLEHEWGAQVGRVIAEEFGTTVQWKAVASAAAGSDARMSGCSLPVIINSGSGNQGMTCSLPVIEYGKELKKSEEEIYRALCVSNLVALNQKRYIGSLSAYCGAVCAAAGAGAGITYLCGGNLEQIQNTVVNTIADAGGIVCDGAKPSCAAKIATSLQAAILSHKMAMRGLVFGSGEGLVMDCPEDTIKAVGYVGRAGMKQTDVEILNLMIGKTKIEDIEK | not soluble
12 | MGSDKIHHHHHHGGFTGAIADFPTAIHRAVKGQMQTTTDYLNGEQTEYDESVFTGEYHYYYEKLSDDDKLIYRQIYAMMQKRMDGISLNTTDTDNVSRIQQFVLLDNPQFFYIEKSQYTVRNSIIFSPVYNMSESDIDNAISTISGYVSACMAGIDEGASDYDKAVHFYEYVIEHAEYEENSPHNQDMYSAVLGRTVCQGYAMMFKYLCDRAGISSLIVTGTTSDANHAWNMVYLDGAWCAVDCTYGDGDYLGKGISYSWFGVPLDVVKLTRTLDNEDMLPQEASVEDDYYYRNGLYFTSYDLKVLQGMTTSSNYITFKFSDRETYDTACHSLFDKGDYKYLIPTARGGTITYMQEPNSLAVFIHIELGS | not soluble
13 | MRVRNIQGEDYVKIYSVLNDWWGGRDMAVMLPKLFFIHFQETSFIIEEEGETLGFLCGFFSQTHKEEAYVHFIGVNPKYRRRGIASTLYSYFFDVARANNRKVVKAITSPVNKKSIQFHREIGFQIEAGDDEIEGVSVHTNYDGNGGSRVLFLKNV | not soluble
14 | MDLFDLIFPPPPQSPSKLHPTQNHILPPEPLNRDFGDTRKNHKKAQPRRTTKAPSTSSPTIHDRQTPPRPTTPKSPTEKLLPIYHKFADGTEVVNPAAYAQRGFGWVKQNNTARVSWAKWAQSTKKCDDDIYGLKWIEERYPNWRDSNFRIRERRRSRSRSPQLSDNGSEDISIYLGRANSSSPNPTATGSETSYGSPTDAIYIPRNY | not soluble
15 | MTVIQWFPGHMAKAKREVQEKLKLIDVAFELLDARVPMSSRNPMIDEILGQKPRLILLNKADMADEAVTEQWIRYFHDQGRLALPIDAQSGTGVRQIAAAAKEMVKDKFEKMRAKGIKNPRPVRALIVGIPNVGKSTLINRLAGRHIAKTGDKPGVTKAQQWIKVGKEMELLDTPGILWPKFEDEDVGYKLAVTGAIKDEILNLQDVAVYALRFLSTHYPNRLAERYGLDDIPDDIVALFDAIGRQRGCLTSGGAVDYDKVADIVLYDIRTEKLGRLSFETPASRT | not soluble
16 | APAADAAQAHDPLSVQTGSDIPASVHMPTDQQRDYIKREVMVPMRDGVKLYTVIVIPKNARNAPILLTRTPYNAKGRANRVPNALTMREVLPQGDDVFVEGGYIRVFQDIRGKYGSQGDYVMTRPPHGPLNPTKTDETTDAWDTVDWLVHNVPESNGRVGMTGSAYEGFTVVMALLDPHPALKVAAPESPMVDGWMGDDWFHYGAFRQGAFDYFVSQMTARGGGNDIPRRDADDYTNFLKAGSAGSFATQAGLDQYPFWQRMHAHPAYDAFWQGQALDKILAQRKPTVPMLWEQGLWDQEDMWGAIHAWQALKDADVKAPNTLVMGPWRHSGVNYNGSTLGPLEFEGDTAHQYRRDVFRPFFDEYLKPGSASVHLPDAIIYNTGDQKWDYYRSWPSVCESNCTGGLTPLYLADGHGLSFTHPAADGADSYVSDPAHPVPFISRPFAFAQSSRWKPWLVQDQREAESRPDVVTYETEVLDEPVRVSGVPVADLFAATSGTDSDWVVKLIDVQPAMTPDDPKMGGYELPVSMDIFRGRYRKDFAKPEALQPDATLHYHFTLPAVNHVFAKGHRIMVQIQSSWFPLYDRNPQKFVPNIFDAKPADYTVATQSIHHGGKEATSILLPVVKQKLGPEQKLISEEDLNSAVDHHHHHH | soluble
17 | MATKRDYYEILGLSKDSSVEDIKKTYRKLALQYHPDRNKEPGAEEKFKEISEAYAVLSDAEKRAQYDRFGHAGIDNQYSAEDIFRGADFGGFGDIFEMFFGGGRRGGPMGPRRGSDLQYDLYVTFEEAAFGVRKDIDIPRTERCSTCSGTGAKPGTSPKRCPNCGGTGQVRTTRSTLGMQFVSTTTCSACHGRGQVVESPCPTCSGAGRVRSRRKMSVNVPAGADSGMTLRLSGEGDAGEPGAPSGDLYIIVHVMEHKYFKRVDYDVISELPISFTQAALGADIMVDTLYGKVKMNIPSGTQTHSVFRLKDKGIQRLQGHGKGDQLVRVIIRTPTKLTQEQKDLLHQFEYLSNGKKPEAEERSRSDKQKSEKPRKSKGLFEKVKDAFES | not soluble
18 | MSLTQVRQTDSGDSLETARPADLLVLLDSLRQREATLNAEVIDLQNTLNALQASGNTDQAALESAQARLAALSILVGAVGATGPGVMITIDDPGPGVAPEVMIDVINELRAAGAEAIQINDAHRSVRVGVDTWVVGVPGSLTVDTKVLSPPYSILAIGDPPTLAAAMNIPGGAQDGVKRVGGRMVVQQADRVDVTALRQPKQHQYAQPVKEGHHHHHH | soluble
19 | GPGSMFTQISNAHTEVVTSLVFSPHVVTTCEGGLLCSTSGDDTTALWDLRAGPGVSQRAAHLTGHHVGPVNHALFHPSNAHTLLTASDDRSIGCWDLRRPDRVVGAVSGFQEGVNKMLWLPVTSDGCRGTGGSSSGGGGSVVSACDDGHVYVHALALPDSGSESATVAGAAPVPQVGALVDKFRVSTSTVNDIVLAPNSTSILITASEDCALRSWSLRHAQQMTNTSVGLMEDRLLATLDEFENPVNHVVVVPSGLMAPVESRAAGEDPESSSSRSPAGAAGDAEESADAAAASTGFPRAYQQVHGGDDVEDAEVGSDAGSSAGARQPRRATDISEAAGTACWLLAACSECVFGVDFALRVGEFGTGARAFVGHQDYVRGLEFTSEGKLLTVSDDSTAIEWDLATTDPIRQVKLHEGLVMSSAVSPSRNLLATGTDRGELRVWRLPFATERIGGSP | not soluble
